Values joined by “and” are separate entries in the source; they are usually repeats but may differ in a detail not shown here. Equal values may be shown once.
What was measured:
[1] = target: full length SM2 Tagged (SM2-FL), small heat shock protein HspSP-ShM2 of Synechococcus sp. phage S-ShM2 (Synechococcus sp. phage S-ShM2); assay: SEC-MALS; Superose-6 10/300 GL, room temperature (25 °C), 1 mg/ml (100 μl) injected, flow 0.2 ml/min; protein kept in 20 mM Tris, 200 mM NaCl, pH 8.0; self-association
[2] = target: full length SM2 Tagged (SM2-FL), small heat shock protein HspSP-ShM2 of Synechococcus sp. phage S-ShM2 (Synechococcus sp. phage S-ShM2); assay: cryo-EM structure; SM2-FL at 3 mg/ml on Quantifoil R2/1 grids, Talos Arctica 200 kV; one sample sorted into a large dataset (about 90%, 8 Å) and a small dataset (about 10%, 7.7 Å); the dimer of the crystal structure fitted to the maps
[3] = target: SM2-ΔN14 (deletion of 14 amino acids from N-terminus of SM2) (Synechococcus sp. phage S-ShM2); assay: SEC-MALS; Superose-6 10/300 GL, room temperature (25 °C), 1 mg/ml (100 μl) injected, flow 0.2 ml/min; protein kept in 20 mM Tris, 200 mM NaCl, pH 8.0; self-association
[4] = target: SM2-ΔN14 (deletion of 14 amino acids from N-terminus of SM2) (Synechococcus sp. phage S-ShM2); assay: crystal structure; SM2-ΔN14 at 12 mg/ml, 0.2 M lithium sulphate monohydrate, 0.1 M Tris pH 8.5, 25% PEG 3350; space group I4, 7 Å, 3 dimers in the asymmetric unit; molecular replacement with the AgsA dimer (PDB 4ZJA)
[5] = target: SM2-ΔN40ΔC24 (deletion of 40 amino acids from N-terminus and 24 amino acids from C-terminus of SM2) (Synechococcus sp. phage S-ShM2); assay: SEC-MALS; Superose-6 10/300 GL, room temperature (25 °C), 1 mg/ml (100 μl) injected, flow 0.2 ml/min; protein kept in 20 mM Tris, 200 mM NaCl, pH 8.0; self-association
[6] = target: SM2-ΔC24 (deletion of 24 amino acids from C-terminus of SM2) (Synechococcus sp. phage S-ShM2); assay: as above

For “full length SM2 Tagged (SM2-FL), small heat shock protein HspSP-ShM2 of Synechococcus sp. phage S-ShM2 (natural protein)”, the stoichiometry N [1] was > 40 and the stoichiometry N [2] was 60 and 48.
In the case of “SM2-ΔN14 (deletion of 14 amino acids from N-terminus of SM2) (domain or fragment)”, the stoichiometry N [3] is reported as 24 and the stoichiometry N [4] is reported as 24.
Work on “SM2-ΔN40ΔC24 (deletion of 40 amino acids from N-terminus and 24 amino acids from C-terminus of SM2) (domain or fragment)” yielded a stoichiometry N [5] of 2.
For “SM2-ΔC24 (deletion of 24 amino acids from C-terminus of SM2) (domain or fragment)”, the stoichiometry N [6] was 2.

— publication PMC8546028
